Three molecules from WO2022065344A1 (dated 2022) can be followed below.

The target in assay [1] is T1, gp46 partial peptide 188-199 with S194 replaced by Ala (HTLV-1).
T1 peptide: PPLLPHANLDHI
Put plainly: ELISA on Ala-substituted gp46 188-199 peptides.

Assay [2] addresses T2, gp46 partial peptide 188-199 with H193 replaced by Ala (HTLV-1).
T2 peptide: PPLLPASNLDHI
Put plainly: ELISA on Ala-substituted gp46 188-199 peptides.

The target of assay [3] is T3, gp46 partial peptide 188-199 with L196 replaced by Ala (HTLV-1).
T3 peptide: PPLLPHSNADHI
Put plainly: ELISA on Ala-substituted gp46 188-199 peptides.

The target of assay [4] is T4, gp46 partial peptide 188-199 with P192 replaced by Ala (HTLV-1).
T4 peptide: PPLLAHSNLDHI
Put plainly: ELISA on Ala-substituted gp46 188-199 peptides.

The target in assay [5] is T5, gp46 partial peptide 188-199 with N195 replaced by Ala (HTLV-1).
T5 peptide: PPLLPHSALDHI
Put plainly: ELISA on Ala-substituted gp46 188-199 peptides.

Assay [6] deals with T6, gp46 partial peptide 188-199 with L191 replaced by Ala (HTLV-1).
T6 peptide: PPLAPHSNLDHI
Put plainly: ELISA on Ala-substituted gp46 188-199 peptides.

In assay [7] the target is T7, HTLV-1 gp46 peptide 180-204 (HTLV-1).
T7 construct: also called HTLV-1 gp46 peptide 180 to 204; gp46 antigen peptide
T7 peptide: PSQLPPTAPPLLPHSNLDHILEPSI
Put plainly: SPR, Biacore T200, antibody amine-coupled on CM5 chip, peptide as analyte, affinity (steady-state) analysis.

Assay [8] addresses T8, HTLV-1 envelope protein gp62 extracellular region (gp46), expressed in 293T cells together with GLUT1 (HTLV-1, UniProt P03381 21-312).
T8 construct: also called HTLV-1-expressing cells; gp62-expressing cells
T8 sequence: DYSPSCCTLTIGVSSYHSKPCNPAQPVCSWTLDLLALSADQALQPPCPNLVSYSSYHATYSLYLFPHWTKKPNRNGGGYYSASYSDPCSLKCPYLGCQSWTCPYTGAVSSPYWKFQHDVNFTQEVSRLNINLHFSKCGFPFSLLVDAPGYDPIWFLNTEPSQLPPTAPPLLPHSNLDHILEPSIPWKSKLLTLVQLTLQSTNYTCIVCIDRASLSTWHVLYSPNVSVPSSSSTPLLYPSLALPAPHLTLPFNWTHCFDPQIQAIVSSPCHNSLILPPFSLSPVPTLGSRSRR
Put plainly: flow cytometry on 293T cells transfected with HTLV-1 and GLUT1 vectors against pcDNA3.1 control cells.

B1: rat anti-HTLV-1 monoclonal antibody rMAb1 (antibody, V domains shown)
VH: EIQLVESGGGLVQPGRSMKLSCEALGFTFGGFPMAWVRQAPTKGLEWVATISPGAVNTYYGDSVKGRFTISRDNAKSTLYLQMNSLRSEDTATYYCVREGYGFSSFEYWGQGVTVTVSP
VL: DIVMTQSPSSLAVSAGETVTIKCKSSQTLLYSGNQKNYLAWYQQKPGQSPKLLICWASTRQSSVPDRFIGSGSGTDFTLTISSVQAEDLAIYYCQQYFATPITFGSGTKLEIKR
Turning to B1, the binding result in assay [1], in assay [2], in assay [3], in assay [4], in assay [5] and in assay [6] was “binds” throughout. Besides, the binding result in assay [8] was “binds”. This molecule also returned a Kd in assay [7] of 3.49 nM.

B2: humanized anti-HTLV-1 antibody hMAb1_H1L12 (antibody, human IgG1, kappa, V domains shown)
VH: EVQLVESGGGLVQPGGSLRLSCAASGFTFGGFPMAWVRQAPGKGLEWVSTISPGAVNTYYADSVKGRFTISRDNSKNTLYLQMNSLRAEDTAVYYCAREGYGFSSFEYWGQGTLVTVSS
VL: DIQMTQSPSSLSASVGDRVTITCKSSQTLLYSGNQKNYLAWYQQKPGKAPKLLISWASTRQSGVPSRFSGSGSGTDFTLTISSLQPEDFATYYCQQYFATPITFGQGTKVEIKR
notes: Human IgG1, kappa
B2: the binding result in assay [1], in assay [2], in assay [3], in assay [4], in assay [5] and in assay [6] was “binds” each time.

B3: rat anti-HTLV-1 monoclonal antibody rMAb98 (antibody, V domains shown)
VH: EVQLVESGGGLVQPGWSMKLSCAASGFTFSGSPMGWVRQAPTKGLEWVATISPTGATTYYRDSVKGRFTISRDNAKATLYLQMNSLRSEDTATYYCTREGYGYSSFDYWGQGVMVTVSS
VL: DIVMTQSPSSLAVSAGETVTINCKSSQSLLFSGYQKNYLAWYQQKPGQSPRLLIYWASTRQSGVPDRFIGSGSGTDFTLTVSSVQAEDVATYYCQQYFDTPLTFGSGTKLEIKR
As to B3, the binding result in assay [8] is recorded as “binds”.
